The text below walks through data of patent US20240207216A1, “COMPOSITIONS AND METHOD FOR TREATING GUT PERMEABILITY CAUSED BY HYDROGEN SULFIDE PRODUCING BACTERIA” (UNM RAINFOREST INNOVATIONS, priority 2022, published 2024).

Experiment [1] concerns Desulfovibrio desulfuricans. The conditions noted are these: cited from earlier work.
For a further experiment, the system named is polarized Caco-2 cells. Nature of the experiment: DSV-induced paracellular permeability, 4 kDa FITC-dextran flux. Format: cell-based, Human. The following applies: IAP 500 U/ml apical and basolateral, 24 h before DSV MOI 20 for 24 h; vs DSV+Veh. The method, then: FIG. 7. Rapamycin reduces DSV-induced paracellular permeability. Human Caco-2 cells were grown in 0.4 μm trans-well inserts for three weeks to generate polarized intestinal epithelial monolayers. Cells were treated with 100 nM rapamycin, an inducer of autophagy, for two hours followed by DSV infection (MOI 20) for 24 hours. Barrier integrity was assessed by measuring paracellular flux of 4 kDa FITC-Dextran.
Human colonic epithelial cells Caco-2 were purchased from the American Type Culture Collection (ATCC, Manassas, VA). Cells were grown in DMEM+20% FBS+penicillin and streptomycin (Thermo Fisher Scientific, Inc., Waltham, MA). Cells were grown at 37° C. in a humidified incubator with 5% CO2. […]
Tight junction barrier integrity in 21-day old polarized Caco-2 cells grown in 12-well trans-well plates was assessed via transepithelial electric resistance (TEER) using EVOM meter (World Precision Instruments, LLC, Sarasota, FL). […] Paracellular permeability was quantified by measuring FITC-dextran flux (Fluorescein isothiocyanate-dextran 4000 (FD-4), Sigma-Aldrich, St. Louis, MO). […] After one hour of incubation, 100 μl of the basolateral medium was collected and analyzed for the presence of FITC fluorescence. Fluorescence was measured at the wavelengths of excitation at 485 nm and emission at 520 nm using a plate reader (Synergy HTX Multi-Mode Reader, BioTek, Winooski, VT). […]

In the next experiment the test system is occludin. In words: Occludin localization by immunofluorescence in DSV-infected cells. Format: cell-based, Human. The following applies: IAP pre-treatment, DSV infection (DSV+IAP).
Experiment [2] relates to Snail. Nature of the experiment: DSV-induced Snail nuclear localization by immunofluorescence. Format: cell-based, Human. The conditions noted are these: IAP pre-treatment, DSV infection; vs DSV+Veh. The method, then: FIG. 5. Intestinal Alkaline Phosphatase inhibits DSV-induced permeability by inhibiting Snail. Polarized Caco-2 cells were pre-treated with IAP (500 U/ml) at the apical and the basolateral surface for 24 hours prior to challenge with D. vulgaris. (A) FITC-dextran was added to the cells apically after 24 hours infection with D. vulgaris. Fluorescence was measured by taking out 100 μl medium from the basolateral surface after one-hour incubation. Graph represents Mean±SEM of % FITC-flux compared to uninfected control cells from at least three independent experiments. **p<0.01. (B) Snail protein expression was analyzed by Western blotting in cells pre-treated with or without IAP followed by infection with D. vulgaris. The solution in which IAP was supplied was used as a Vehicle control. Actin was used as a loading control. (C) Quantification of Western blot for detection of Snail. Graph represents Mean±SEM of ratio of Snail/Actin and values were normalized to control from at least three independent experiments. *p<0.05. (D) Cells were pre-treated with or without IAP followed by infection with D. vulgaris. Cells were fixed with 4% paraformaldehyde and probed by immunofluorescence for Snail staining. Graph represents quantification of % cells showing nuclear staining of Snail in control, DSV+Vehicle (Veh), or DSV+IAP treated groups. […]

In experiment [3] the test system is Snail. Nature of the experiment: DSV-induced Snail protein expression by Western blot. Format: cell-based, Human. The following applies: IAP 500 U/ml pre-treatment 24 h, DSV 24 h; vs DSV+Veh. As for the experimental part: FIG. 16. Rapamycin reduces DSV-induced Snail protein expression. Polarized Caco-2 cells were treated with 100 nM rapamycin for two hours, followed by DSV infection (MOI 20) for 24 hours. Cells were harvested and lysed. (A) Protein lysate was analyzed for Snail expression by Western blotting. (B) Quantitation of Snail expression from Western blot in (A). DSV: 7.14±0.73; DSV+Rapamycin: 3.10±0.74, **p<0.01.
Human colonic epithelial cells Caco-2 were purchased from the American Type Culture Collection (ATCC, Manassas, VA). Cells were grown in DMEM+20% FBS+penicillin and streptomycin (Thermo Fisher Scientific, Inc., Waltham, MA). Cells were grown at 37° C. in a humidified incubator with 5% CO2. To allow polarization and differentiation, cells were seeded at a density of 5×10^3 cells/well in 12-well 0.4 μm trans-well inserts for three weeks. Twenty-four hours before infection, growth medium was replaced with colorless medium (DMEM+20^0/o FBS) without antibiotics. […]
Cells were lysed in lysis buffer (Thermo Fisher Scientific, Inc., Waltham, MA; catalog #87787) containing protease and phosphatase inhibitors (Thermo Fisher Scientific, Inc., Waltham, MA; catalog #1861281) for 20 minutes at 4° C. with shaking. […] Protein concentration in the supernatants was determined with Bradford reagent (Bio-Rad Laboratories, Inc., Hercules, CA). […]
In general terms: A western blot detects proteins with antibodies after separation by electrophoresis.

Turning to `[Bi]` [bismuth], the “growth of Desulfovibrio desulfuricans” value in experiment [1] is listed as “inhibits the growth”.

B1: intestinal alkaline phosphatase (protein, UniProt P09923 20-503, looked up)
Intestinal-type alkaline …: VIPAEEENPAFWNRQAAEALDAAKKLQPIQKVAKNLILFLGDGLGVPTVTATRILKGQKNGKLGPETPLAMDRFPYLALSKTYNVDRQVPDSAATATAYLCGVKANFQTIGLSAAARFNQCNTTRGNEVISVMNRAKQAGKSVGVVTTTRVQHASPAGTYAHTVNRNWYSDADMPASARQEGCQDIATQLISNMDIDVILGGGRKYMFPMGTPDPEYPADASQNGIRLDGKNLVQEWLAKHQGAWYVWNRTELMQASLDQSVTHLMGLFEPGDTKYEIHRDPTLDPSLMEMTEAALRLLSRNPRGFYLFVEGGRIDHGHHEGVAYQALTEAVMFDDAIERAGQLTSEEDTLTLVTADHSHVFSFGGYTLRGSSIFGLAPSKAQDSKAYTSILYGNGPGYVFNSGVRPDVNESESGSPDYQQQAAVPLSSETHGGEDVAVFARGPQAHLVHGVQEQSFVAHVMAFAACLEPYTACDLAPPACTTD
notes: host defense protein produced by enterocytes in the small intestine
For B1, the “D. vulgaris-induced FITC-dextran flux” value in the experiment with polarized Caco-2 cells is “inhibited”. Also, the occludin staining result in the experiment with occludin is listed as “comparable to control”. Besides, the “percentage of cells with nuclear localization of Snail” value with Snail [2] is reported as “significant reduction”. Further, the Snail protein expression result in the experiment on Snail [3] was “significantly reduced”.
